Results reported in US8604172B2, “Humanized antibody compositions and methods for binding lysophosphatidic acid” (Lpath, Inc., priority 2009, dated 2013).

What was measured:
[1] = Direct binding ELISA of anti-LPA mAbs to 18:1 LPA
Experimental: The binding of 6 anti-LPA mAbs (B3, B7, B58, A63, B3A6, D22) to 12:0 and 18:1 LPA (0.1 uM) was measured by ELISA. EC50 values were calculated from titration curves using 6 increasing concentrations of purified mAbs (0 to 0.4 ug/ml). EC50 represents the effective antibody concentration with 50% of the maximum binding. Max denotes the maximal binding (expressed as OD450).

[2] = Competition ELISA specificity, competitor S1P; assay type: binding; settings: maximum inhibition, n = 3
Experimental: The specificity of the anti-LPA mAbs was assessed for their binding to LPA related biolipids such as distearoyl-phosphatidic acid, lysophosphatidylcholine, S1P, ceramide and ceramide-1-phosphate.

[3] = Surface plasmon resonance, 18:0 LPA on GLC sensor chip; assay type: binding
Experimental: All binding data were collected on a ProteOn optical biosensor (BioRad, Hercules Calif.). 12:0 LPA-thiol and 18:0 LPA-thiol were coupled to a maleimide modified GLC sensor chip (Cat. No 176-5011). First, the GLC chip was activated with an equal mixture of sulfo-NHS/EDC for seven minutes followed by a 7 minute blocking step with ethyldiamine. Next sulfo-MBS (Pierce Co., cat #22312) was passed over the surfaces at a concentration of 0.5 mM in HBS running buffer (10 mM HEPES, 150 mM NaCl, 0.005% tween-20, pH 7.4). LPA-thiol was diluted into the HBS running buffer to a concentration of 10, 1 and 0.1 uM and injected for 7 minutes producing 3 different density LPA surfaces (˜100, ˜300 and ˜1400 RU). Next, binding data for the humanized antibodies was collected using a 3-fold dilution series starting with 25 nM as the highest concentration (original stocks were each diluted 1 to 100). Surfaces were regenerated with a 10 second pulse of 100 mM HCl. All data were collected at 25° C. Controls were processed using a reference surface as well as blank injections. […] In order to extract estimates of the binding constants, data from the varying antibody concentrations were globally fit using 1-site and 2-site models. This produced estimates of the affinity for the bivalent (site 1) and monovalent site (site 2).

[4] = BIAcore 3000 kinetics, LPA immobilized on sensor chip; assay type: binding
Experimental: The kinetics parameters ka (association rate constant), kd (disassociation rate constant) and KD ([…] equilibrium constant) were determined for the 6 lead candidates using the BIAcore 3000 Biosensor machine. In this study, LPA was immobilized on the sensor surface and the anti-LPA mAbs were flowed in solution across the surface.
LPA was immobilized to the sensor chip at densities ranging 150 resonance units. Dilutions of each mAb were passed over the immobilized LPA and kinetic constants were obtained by nonlinear regression of association/dissociation phases. Errors are given as the standard deviation using at least three determinations in duplicate runs. Apparent affinities were determined by […].
ka=Association rate constant in M^−1s^−1kd=Dissociation rate constant in s^−1

[5] = Thermostability (Tm); assay type: physicochemical
Experimental: The thermostability of the humanized antibodies were studied by measuring their LPA-binding affinity (EC50) after heating using the direct binding ELISA. Antibodies dissolved in PBS (Cellgo, Cat. No 021-040) were diluted to 25 ug/ml and incubated at 60° C., 65° C., 70° C., 75° C. and 80° C. for 10 min. Prior to increasing the temperature, 10 ul of each sample was removed and diluted with 90 ul of PBS and stored on ice. The samples were then vortexed briefly and the insoluble material was removed by centrifugation for 1 min at 13,000 rpm. The binding activity of the supernatant was determined using the direct LPA-binding ELISA and compared to a control, which consisted of the same sample without heat treatment.

[6] = Competition ELISA (18:1 LPA coat), competitor 16:0 LPA; assay type: binding; settings: maximum inhibition
Experimental: (§1) Many isoforms of LPA have been identified to be biologically active and it is preferable that the mAb recognize all of them to some extent to be of therapeutic relevance. The specificity of the anti-LPA mAbs was evaluated utilizing a competition assay in which the competitor lipid was added to the antibody-immobilized lipid mixture.
(§2) Competition ELISA assays were performed with the anti-LPA mAbs to assess their specificity. 18:1 LPA was captured on ELISA plates. Each competitor lipid (up to 10 uM) was serially diluted in BSA (1 mg/ml)-PBS and then incubated with the mAbs (3 nM). Mixtures were then transferred to LPA coated wells and the amount of bound antibody was measured with a secondary antibody. Data are normalized to maximum signal (A450) and are expressed as percent inhibition. Assays were performed in triplicate. IC50: Half maximum inhibition concentration; MI: Maximum inhibition (% of binding in the absence of inhibitor); - - -: not estimated because of weak inhibition. A high inhibition result indicates recognition of the competitor lipid by the antibody.

[7] = Competition ELISA (18:1 LPA coat), competitor 14:0 LPA; settings: maximum inhibition (% of binding in the absence of inhibitor)
Experimental: as §1, §2

[8] = Safety, 7 day intravenous injection; assay type: in vivo, C57BL/6N mice; settings: for triglycerides / liver weights: mean±SD; for triglycerides: in mg/dL (unit assumed); for liver weights: in g (unit assumed)
Excerpt: Objective. This study assessed the safety of Lpathomab following intravenous injection of the antibody. C57BL/6N mice received Lpathomab (LT3000) for 7 consecutive days followed by a 7 day recovery period for selected animals of each treatment (recovery groups). Blood samples were collected and processed for multiple study parameters including classical hematology, coagulation time and clinical chemistry. Selected organs were weighed and compared with vehicle only controls.
Study design. Once a day, single iv bolus injections of Lpathomab or vehicle control were given at the following doses: 0, 30, 60, 120, and 240 mg/kg. […] For each animal, necropsy consisted of an external examination, including identification of all clinically recorded lesions, as well as a detailed internal examination.

[9] = tested on: human colon cancer cell line (COLO-205); test: Xenograft CAM assay; assay type: in vivo
[10] = 30-240 mg/kg iv daily x 7 vs control

B1: LT3000: Murine anti-LPA monoclonal antibody clone B7, IgG1k, renamed Lpathomab, also known as LT3000; hybridoma 504B7.1, ATCC PTA-8420 (antibody, V domains shown)
VH: QVQLQQSGAELVRPGTSVKVSCKASGYGFINYLIEWIKQRPGQGLEWIGLINPGSDYTNYNENFKGKATLTADKSSSTAYMHLSSLTSEDSAVYFCARRFGYYGSGNYFDYWGQGTTLTVSS
VL: DVVMTQTPLSLPVSLGDQASISCTSGQSLVHINGNTYLHWYLQKPGQSPKLLIYKVSNLFSGVPDRFSGSGSGTDFTLKISRVEAEDLGVYFCSQSTHFPFTFGTGTKLEIK
EC50 ([1]; 18:1 LPA 0.1 uM, mAb 0 to 0.4 ug/ml): 0.274 nM | Max (OD450), 18:1 LPA ([1]; maximal binding): 0.973 OD450 | MI (%), S1P [2]: 2.7% | Kd ([3]; first value (site 1, bivalent), read-out: KD (C18)): 11 pM | Kd ([3]; value in parentheses (site 2, monovalent), read-out: KD (C18), value in parentheses): 5 pM | Kd ([4]; apparent affinity): 1.6 ± 0.1 pM | ka (M^−1 s^−1) ([4]; association rate constant, ± standard deviation): 6.2 ± 0.1 × 10^5 M^−1 s^−1 | kd ([4]; dissociation rate constant): 1e-06 s⁻¹ | Tm ([5]; 10 min at 60-80° C., LPA binding by direct ELISA): 67 °C | Apparent Tm ([5]; pH 7.4): 67 °C at pH 7.4 | MI, 16:0 LPA [6]: 62.9% | MI, 14:0 LPA [7]: 61.3% | weights of brains, hearts, lungs, pituitary glands, ovaries, spleens, testes, thymus glands, thyroid or uterus ([8]; 30-240 mg/kg iv daily x 7): No changes were observed | glucose, cholesterol, ALT or other CBC parameters [8, 10]: no statistically significant reductions | hematology parameters [8, 10]: no significant differences | triglycerides ([8]; female mice, 120 mg/kg iv daily x 7, vehicle 89±17): 36±8 | triglycerides ([8]; female mice, 240 mg/kg iv daily x 7, vehicle 89±17): 46±18 | liver weights ([8]; female mice, 240 mg/kg, vehicle 1.2±0.27): 0.89±0.26 | liver weights ([8]; male mice, 60 mg/kg, vehicle 1.28±0.06): 1.03±0.07 | liver weights ([8]; male mice, 120 mg/kg, vehicle 1.28±0.06): 1.08±0.11 | triglycerides ([8]; male mice, 240 mg/kg iv daily x 7, vehicle 133±24): 50±8 | liver weights ([8]; male mice, 240 mg/kg, vehicle 1.28±0.06): 1.11±0.11 | tumor size [9]: significantly reduced
